In this assay the target is SARS-CoV-2 RBD-SD1, HEK cell produced (SPR) (Severe acute respiratory syndrome …, UniProt P0DTC2). Description: SPR. The note with it: both partners purified.

By Kd is commonly meant the concentration at which binding is half-saturated. A higher Kd goes with lower affinity.

B1: STE73-2E9 IgG (antibody, V domains shown)
VH: QVQLVQSGAEVKKPGASVKVSCKASGYTFTSYGISWVRQAPGQGLEWMGWISAYNGNTNYAQKLQGRVTMTTDTSTSTAYMELRSLRSDDTAVYYCARGKFDYWGQGTLVTVSS
VL: QSVLTQPPSVSEAPSQRVTISCSGSSSNIGNNAVNWYQQLPGKAPKLLIYYDDVLPSGVSDRFSGSKSGTSASLAISGLQSGDEADYYCAAWDDSLSGVVFGGGTKLTVL
notes: source: Expi293F, transfected, purified (Protein A); copies: 2 + 2
In turn, B1 showed a Kd of 2 nM.

Values taken from paper PMC7952403 (Nature Communications, 2021).
